Test results: publication PMC7112233, “E2f5 is a versatile transcriptional activator required for spermatogenesis and multiciliated cell differentiation in zebrafish”

Molecular target: T1, E2f5 (zebrafish, UniProt A5WUE8 1-363)
T1 sequence: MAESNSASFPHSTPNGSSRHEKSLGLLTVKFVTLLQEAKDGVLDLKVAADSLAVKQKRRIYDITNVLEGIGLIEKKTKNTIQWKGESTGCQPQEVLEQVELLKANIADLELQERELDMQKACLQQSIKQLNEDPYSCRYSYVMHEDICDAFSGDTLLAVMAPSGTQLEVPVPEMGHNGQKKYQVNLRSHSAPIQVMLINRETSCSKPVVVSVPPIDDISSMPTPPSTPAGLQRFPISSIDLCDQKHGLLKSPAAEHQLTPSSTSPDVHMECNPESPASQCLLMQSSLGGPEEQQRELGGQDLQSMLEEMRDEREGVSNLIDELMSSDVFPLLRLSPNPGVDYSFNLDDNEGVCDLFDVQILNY
Test: EMSA; 10 mM Tris-HCl pH 8.0, 50 mM NaCl, 1 mM MgCl2, 0.5 mM EDTA, 0.5 mM DTT, 4% glycerol; 3 ug protein, 1 ul annealed oligo (25 uM stock); 40 min room temperature; 6.5% native PAGE
Details: protein: recombinant; tags: His (pET30A, Ni-NTA purified); label: 5'-FAM; annealed with complementary oligonucleotide

B1: dmc1 E2F site mutant probe (dsDNA)
DNA 1: TGTCAACATACGATTGTAAATTTAAATTTCTTTCAGC
DNA 2: GCTGAAAGAAATTTAAATTTACAATCGTATGTTGACA
binding result: no binding

B2: dmc1 E2F site wild-type probe (dsDNA)
DNA 1: TGTCAACATACGATTGTGGCGCGAAATTTCTTTCAGC
DNA 2: GCTGAAAGAAATTTCGCGCCACAATCGTATGTTGACA
binding result: binds
